The values below come from patent US20260055182A1 (CIS BIOPHARMA, published 2026).

One test addresses T1, CD20 on HEK293 cells (human, UniProt P11836 1-297).
T1 construct: whole, on cells; Positive control target for the Rituximab biosimilar; also called clone 0038
T1 sequence (looked up): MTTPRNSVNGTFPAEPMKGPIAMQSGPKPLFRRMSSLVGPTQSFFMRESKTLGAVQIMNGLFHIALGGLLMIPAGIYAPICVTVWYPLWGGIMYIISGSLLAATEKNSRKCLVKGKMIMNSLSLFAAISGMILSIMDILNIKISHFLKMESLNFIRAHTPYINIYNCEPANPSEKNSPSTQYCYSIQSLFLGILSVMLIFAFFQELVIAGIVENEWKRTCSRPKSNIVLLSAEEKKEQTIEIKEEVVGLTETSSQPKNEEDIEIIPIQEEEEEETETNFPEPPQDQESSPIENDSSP
The test is described as follows: cell microarray confirmation screen, control vector; cells of LV40 under CD20 are blank.

For test [1], the target named is T2, human FcRn / FCGRT&B2M (human, UniProt P55899 24-297; P61769 21-119).
T2 construct: Bought protein, reversibly immobilised for SPR at pH 6.0; also called neonatal receptor
The experiment in a line: SPR; KD of LV40 over KD of Rituximab (control).
Protocol: (§1) Effect on interaction with Fc receptor was analyzed by SPR [Instrument: Biacore T200 (C1q and FcRn) and 8K+ for (FcγR)]. Analysis temperature: 25° C., sample compartment: 12° C., Sensor chips: CM3 (C1q) and C1 (FcγR and FcRn).
(§2) Concentration range was adjusted to optimal window depending on results of qualitative analysis. The study was conducted by Biaffin GmbH & Co KG (Bielefeld, Germany).

The target of test [2] is T3, human FcyRI/CD64 (human, UniProt P12314 16-288, limits assumed).
T3 construct: Bought protein, reversibly immobilised for SPR; also called human CD64
The test is described as follows: SPR; KD of LV40 over KD of Rituximab (control).
Protocol: as §1, §2

Test [3] addresses human C1q purified protein (human, UniProt P02745 23-245; P02746 28-253; P02747 29-245). The experiment in a line: SPR (Biacore T200), C1q reversibly immobilised, antibody as analyte; table token '-' at the 120th table, row 16, column 3.
Protocol: as §1
The target in test [4] is T3, human FcyRI/CD64. The test is described as follows: SPR (Biacore 8K+), receptor reversibly immobilised, antibody as analyte.
Protocol: as §1, §2
Test [5] deals with T2, human FcRn / FCGRT&B2M. The experiment in a line: SPR (Biacore T200), pH 6.0, FcRn reversibly immobilised, antibody as analyte.
Protocol: as §1, §2
A further test has as its target T4, EGFR on HEK293 cells (human, UniProt P00533 25-1210).
T4 construct: whole, on cells; also called hEGFR
The test is described as follows: cell microarray confirmation screen, negative control vector; cells of LV40 under EGFR are blank.

For test [6], the target named is T5, human FcyRIIIA/CD16a (V176) (human, UniProt P08637 17-208).
T5 construct: Bought protein, reversibly immobilised for SPR; also called human CD16a (V176)
The test is described as follows: SPR (Biacore 8K+), receptor reversibly immobilised, antibody as analyte; table token '-' at the 120th table, row 12, column 3.
Protocol: as §1

The target in test [7] is T6, human FcyRIIA/CD32a (H167) (human, UniProt P12318 36-218).
T6 construct: Bought protein, reversibly immobilised for SPR; also called human CD32a (H167)
T6 sequence (looked up): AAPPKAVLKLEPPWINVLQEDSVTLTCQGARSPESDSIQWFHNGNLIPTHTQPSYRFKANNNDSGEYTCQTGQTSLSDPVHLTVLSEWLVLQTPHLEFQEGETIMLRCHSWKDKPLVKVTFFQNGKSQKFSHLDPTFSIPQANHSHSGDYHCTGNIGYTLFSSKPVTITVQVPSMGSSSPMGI
The experiment in a line: SPR (Biacore 8K+), receptor reversibly immobilised, antibody as analyte; table token '-' at the 120th table, row 10, column 3.
Protocol: as §1

Test [8] deals with T7, L1-CAM recombinant protein (His Tag), human (human, UniProt P32004 20-1120).
T7 construct: Bought protein; also called CD171; human L1-CAM; not shown: His tag
The experiment in a line: SPR (Biacore 8K) as in Example 6, new batch of L1-CAM on the chip.

T7 sequence (P32004 20-1120 limits assumed): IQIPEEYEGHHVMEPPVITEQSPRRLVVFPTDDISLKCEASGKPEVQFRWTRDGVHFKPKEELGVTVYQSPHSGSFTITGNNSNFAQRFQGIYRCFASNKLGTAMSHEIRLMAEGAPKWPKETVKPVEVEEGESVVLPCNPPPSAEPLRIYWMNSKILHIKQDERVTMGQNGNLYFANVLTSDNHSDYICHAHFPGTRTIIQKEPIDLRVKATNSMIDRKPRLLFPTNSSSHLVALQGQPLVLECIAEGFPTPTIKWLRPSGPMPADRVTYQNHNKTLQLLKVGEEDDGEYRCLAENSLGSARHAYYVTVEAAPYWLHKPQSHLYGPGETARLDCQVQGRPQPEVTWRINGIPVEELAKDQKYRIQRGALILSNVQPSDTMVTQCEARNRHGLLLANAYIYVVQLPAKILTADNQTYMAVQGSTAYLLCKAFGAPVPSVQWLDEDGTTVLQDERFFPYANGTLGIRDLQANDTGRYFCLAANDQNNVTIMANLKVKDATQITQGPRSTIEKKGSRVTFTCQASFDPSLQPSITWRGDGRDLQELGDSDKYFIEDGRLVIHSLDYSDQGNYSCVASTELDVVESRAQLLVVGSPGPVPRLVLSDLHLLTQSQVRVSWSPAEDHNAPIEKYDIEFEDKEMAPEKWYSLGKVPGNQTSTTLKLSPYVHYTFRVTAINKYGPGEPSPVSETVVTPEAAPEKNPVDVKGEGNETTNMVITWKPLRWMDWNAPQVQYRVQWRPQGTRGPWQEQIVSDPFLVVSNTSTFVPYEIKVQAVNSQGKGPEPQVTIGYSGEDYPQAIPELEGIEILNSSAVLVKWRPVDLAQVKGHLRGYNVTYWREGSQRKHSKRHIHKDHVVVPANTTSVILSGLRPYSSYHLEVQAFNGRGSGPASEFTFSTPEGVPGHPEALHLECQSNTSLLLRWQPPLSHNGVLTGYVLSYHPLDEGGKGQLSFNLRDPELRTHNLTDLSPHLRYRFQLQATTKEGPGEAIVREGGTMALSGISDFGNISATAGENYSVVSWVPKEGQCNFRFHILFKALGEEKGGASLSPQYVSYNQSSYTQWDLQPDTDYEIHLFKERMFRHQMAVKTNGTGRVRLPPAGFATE
T2 sequence (P55899 24-297 limits assumed, chain 1 of 2): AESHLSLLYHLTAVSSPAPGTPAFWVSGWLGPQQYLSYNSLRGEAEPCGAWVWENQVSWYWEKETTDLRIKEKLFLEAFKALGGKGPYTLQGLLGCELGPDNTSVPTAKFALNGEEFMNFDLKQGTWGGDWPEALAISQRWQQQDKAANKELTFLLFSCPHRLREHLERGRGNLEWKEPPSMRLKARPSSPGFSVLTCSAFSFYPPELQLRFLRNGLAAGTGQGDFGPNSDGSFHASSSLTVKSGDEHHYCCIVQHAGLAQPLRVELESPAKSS
T2 sequence (P61769 21-119 limits assumed, chain 2 of 2): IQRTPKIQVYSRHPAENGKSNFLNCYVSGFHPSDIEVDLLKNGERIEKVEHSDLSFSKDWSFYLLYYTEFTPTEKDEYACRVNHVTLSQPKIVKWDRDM
T3 sequence (P12314 16-288 limits assumed): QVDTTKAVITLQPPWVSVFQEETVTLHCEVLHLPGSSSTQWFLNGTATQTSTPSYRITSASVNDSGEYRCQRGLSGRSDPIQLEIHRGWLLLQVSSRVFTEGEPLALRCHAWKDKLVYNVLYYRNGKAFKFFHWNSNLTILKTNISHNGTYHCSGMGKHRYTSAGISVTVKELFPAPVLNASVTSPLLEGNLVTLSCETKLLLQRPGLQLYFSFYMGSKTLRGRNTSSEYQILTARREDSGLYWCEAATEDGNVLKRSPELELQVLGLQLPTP
human C1q purified protein, sequence (P02745 23-245, chain 1 of 3): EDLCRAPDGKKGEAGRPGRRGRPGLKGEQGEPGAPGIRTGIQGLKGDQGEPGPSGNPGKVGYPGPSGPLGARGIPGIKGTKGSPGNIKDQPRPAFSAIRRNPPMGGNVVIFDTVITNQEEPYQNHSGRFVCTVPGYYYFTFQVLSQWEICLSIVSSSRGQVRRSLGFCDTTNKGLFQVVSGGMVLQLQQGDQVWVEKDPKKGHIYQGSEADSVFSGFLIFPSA
human C1q purified protein, sequence (P02746 28-253, chain 2 of 3): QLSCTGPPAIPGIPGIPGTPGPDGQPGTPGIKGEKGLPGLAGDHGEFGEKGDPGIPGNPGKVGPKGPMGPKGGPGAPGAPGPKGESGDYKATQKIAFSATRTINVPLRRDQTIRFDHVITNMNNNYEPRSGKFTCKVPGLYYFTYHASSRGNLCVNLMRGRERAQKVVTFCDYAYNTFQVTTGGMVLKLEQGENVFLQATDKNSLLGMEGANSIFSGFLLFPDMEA
human C1q purified protein, sequence (P02747 29-245, chain 3 of 3): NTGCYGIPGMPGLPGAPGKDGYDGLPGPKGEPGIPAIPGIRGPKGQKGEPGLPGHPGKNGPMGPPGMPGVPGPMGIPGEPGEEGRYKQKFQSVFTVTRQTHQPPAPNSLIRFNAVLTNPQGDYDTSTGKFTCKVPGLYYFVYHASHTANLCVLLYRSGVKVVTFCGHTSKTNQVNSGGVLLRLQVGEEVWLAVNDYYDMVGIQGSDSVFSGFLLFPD
T5 sequence (P08637 17-208 F176V limits assumed): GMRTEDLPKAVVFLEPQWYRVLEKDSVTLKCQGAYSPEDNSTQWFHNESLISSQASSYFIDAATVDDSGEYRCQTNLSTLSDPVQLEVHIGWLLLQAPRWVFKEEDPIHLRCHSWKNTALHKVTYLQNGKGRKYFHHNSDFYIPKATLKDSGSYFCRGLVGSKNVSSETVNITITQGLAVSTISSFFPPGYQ
Protocol for CD20 on HEK293 cells: (§3) Vectors encoding all interactions identified in the library screen, plus control vectors encoding CD20 (positive control) and EGFR (transfection and negative control), were arrayed and expressed in HEK293 cells on new slides. Confirmation screen slides and analyses were carried out as for the library screen either after cell fixation (n=2) or in the absence of fixation (n=1). […] Binding to target-expressing cells and non-transfected cells was again assessed by fluorescence imaging.
Protocol for EGFR on HEK293 cells: as §3

B1: huCE7 LV40 (antibody, human IgG1, kappa, L234A L235A, N297A)
heavy: QVQLVQSGAEVKKPGASVKVSCKASGYTFTGYFMHWVRQAPGQGLEWIGEINPSNARTNYNERFQGRVTLTVDKSISTAYMELSRLRSDDTAVYYCARDYYGTSYNFDYWGQGTLVTVSSASTKGPSVFPLAPSSKSTSGGTAALGCLVKDYFPEPVTVSWNSGALTSGVHTFPAVLQSSGLYSLSSVVTVPSSSLGTQTYICNVNHKPSNTKVDKKVEPKSCDKTHTCPPCPAPEAAGGPSVFLFPPKPKDTLMISRTPEVTCVVVDVSHEDPEVKFNWYVDGVEVHNAKTKPREEQYASTYRVVSVLPVLHQDWLNGKEYKCKVSNKALPASIEKTISKAKGQPREPQVYTLPPSREEMTKNQVSLTCLVKGFYPSDIAVEWESNGQPENNYKTTPPVLDSDGSFFLYSKLTVDKSRWQQGNVFSCSVMHEALHNHYTQKSLSLSPGK
light: DIQMTQSPSSLSASVGDRVTITCKANEDINARLAWYQQKPGKAPKLLISGATNLVTGVPSRFSGSGSGKDYTLTISSLQPEDFATYYCQQYYSTPFTFGQGTKLEIKRTVAAPSVFIFPPSDEQLKSGTASVVCLLNNFYPREAKVQWKVDNALQSGNSQESVTEQDSKDSTYSLSSTLTLSKADYEKHKVYACEVTHQGLSSPVTKSFNRGEC
notes: Variant 7AG (IgG1, N297A L234A L235A P331S) with HC WH33F, GH55A, TH307P and LC NL31A, WL92Y; also called huCE7 variant LV40; huCE7-variant40
Regarding B1, the binding result with CD20 on HEK293 cells is “no binding (tested: 20 µg/mL)”; in test [3], “no binding”; with EGFR on HEK293 cells, “no binding (tested: 20 µg/mL)”; in test [6] it was “no binding”; in [7] it was “no binding”. Further, the “ratio KD (KD sample / KD control)” value was 1.2 with human FcRn / FCGRT&B2M [1] and 389 with human FcyRI/CD64 [2]. Moreover, the dissociation constant (Kd) with human FcyRI/CD64 [4] was 15.8 nM; in the test with human FcRn / FCGRT&B2M [5] it was 459 nM; in [8] it was 0.0644 nM. Moreover, in test [8], the koff is 0.000472 s⁻¹. Also, the kon in test [8] was found to be 7.32e+06 M⁻¹ s⁻¹.
